{"source": "paper PMC9190123", "about": "(Molecular pharmaceutics, 2009)", "key": {"[1]": {"biological_target": "PSMA (PSMA-expressing LNCaP cells) (Homo sapiens, UniProt Q04609)", "sequence (Q04609 whole entry)": "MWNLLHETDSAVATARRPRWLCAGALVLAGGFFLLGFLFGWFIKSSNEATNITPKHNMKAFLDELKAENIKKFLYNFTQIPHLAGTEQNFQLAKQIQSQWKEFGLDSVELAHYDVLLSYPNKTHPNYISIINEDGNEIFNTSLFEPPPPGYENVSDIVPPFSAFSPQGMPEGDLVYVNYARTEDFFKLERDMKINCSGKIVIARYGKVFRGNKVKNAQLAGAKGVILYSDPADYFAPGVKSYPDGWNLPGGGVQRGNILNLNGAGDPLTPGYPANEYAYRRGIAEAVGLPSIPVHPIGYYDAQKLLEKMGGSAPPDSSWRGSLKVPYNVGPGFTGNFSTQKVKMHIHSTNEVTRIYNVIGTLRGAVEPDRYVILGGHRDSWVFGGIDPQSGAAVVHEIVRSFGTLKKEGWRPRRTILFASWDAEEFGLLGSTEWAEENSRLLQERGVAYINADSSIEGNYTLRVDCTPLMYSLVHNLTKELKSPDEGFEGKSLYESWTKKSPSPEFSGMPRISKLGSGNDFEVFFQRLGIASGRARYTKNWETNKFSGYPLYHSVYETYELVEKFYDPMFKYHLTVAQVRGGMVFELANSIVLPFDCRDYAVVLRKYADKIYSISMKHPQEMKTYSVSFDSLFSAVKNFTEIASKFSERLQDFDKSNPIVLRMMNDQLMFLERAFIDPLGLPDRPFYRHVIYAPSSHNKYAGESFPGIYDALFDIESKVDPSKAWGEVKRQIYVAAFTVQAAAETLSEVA", "assay": "LNCaP cell binding study", "conditions": "for affinity for PSMA / LNCaP cells (in words): LNCaP cells in culture; for Kd: PSMA-positive LNCaP cells in culture, 1 h at 37 °C; for competitive inhibition of binding by excess PMPA: LNCaP cells, 100-fold excess PMPA"}, "LNCaP tumor xenografts": {"test_system": "LNCaP tumor xenografts", "type": "in vivo, athymic nu/nu mice", "conditions": "for tumor-specific accumulation by whole-body radioimaging: 4 h after ip injection; for accumulation in PSMA-positive tumors by γ-counting (in words): tissue biodistribution, 4 h; for Tumor:Tissue blood / Tumor:Tissue heart / Tumor:Tissue liver / Tumor:Tissue lung / Tumor:Tissue muscle / Tumor:Tissue skin / Tumor:Tissue spleen: mouse, in vivo, ip"}, "[2]": {"type": "in vivo, athymic nu/nu mice", "conditions": "mouse, ip"}, "[3]": {"test_system": "PSMA-negative human tumor xenografts", "conditions": "two PSMA-negative human tumor xenografts; cited from earlier work"}, "[4]": {"conditions": "male, athymic nu/nu, in vivo, 67 nmol, total radioactivity, tumor uptake, average % ID/g tissue"}}, "note": "Read-outs that look alike come from different tables or passages of the source. Numbered stars: 1 amine (or outer) side, 2 acyl side, 3 side chain; on linkers, the order of the positions; unused ones are H or OH. Square brackets hold non-standard residues; d marks the D form. Side chains are listed from the residue outwards. Peptide text beside a SMILES is read from it. * marks the point of attachment. X1 = N[C@@H](CN*)C(=O)N[C@@H](CC(=O)O)C(=O)N[C@@H](CS)C(=O)O; γGlu = O=C(O)[C@H](CCC(=O)[*:2])N[*:1]; PEG6 = NCCOCCOCCOCCOCCOCCOCCC(=O)O; Dap = NC[C@H](N)C(=O)O; Aoc = NCCCCCCCC(=O)O; CO = O=C([*:1])[*:2]"}
{"smiles": "N[C@@H](CNC(=O)CC[C@H](NC(=O)N[C@@H](CCC(=O)O)C(=O)O)C(=O)O)C(=O)N[C@@H](CC(=O)O)C(=O)N[C@@H](CS)C(=O)O", "note": "[compound 3] (H-[Dap]([γGlu-CO-Glu])-Asp-Cys-OH)", "values": [{"measurement": "affinity for PSMA / LNCaP cells (in words)", "setting": "[1]", "value": "weak affinity"}, {"measurement": "Kd", "setting": "[1]", "value": 0.176, "unit": "µM"}, {"measurement": "tumor-specific accumulation by whole-body radioimaging", "setting": "LNCaP tumor xenografts; radioimaging", "value": "not observed"}, {"measurement": "accumulation in PSMA-positive tumors by γ-counting (in words)", "setting": "LNCaP tumor xenografts", "value": "did not accumulate"}]}
{"smiles": "N[C@@H](CNC(=O)[C@H](Cc1ccccc1)NC(=O)[C@H](CCC(=O)O)NC(=O)CC[C@H](NC(=O)N[C@@H](CCC(=O)O)C(=O)O)C(=O)O)C(=O)N[C@@H](CC(=O)O)C(=O)N[C@@H](CS)C(=O)O", "note": "[compound 4] (H-[Dap]([Phe-Glu-γGlu-CO-Glu])-Asp-Cys-OH)", "values": [{"measurement": "affinity for PSMA / LNCaP cells (in words)", "setting": "[1]", "value": "somewhat lower affinities"}, {"measurement": "competitive inhibition of binding by excess PMPA", "setting": "[1]", "value": "nearly quantitative competition"}, {"measurement": "Kd", "setting": "[1]", "value": 0.06, "unit": "µM"}, {"measurement": "tissue uptake at 4 h", "setting": "[2]; [4]", "value": "9.8 ± 2.4", "unit": "%ID/g"}, {"measurement": "tissue uptake at 4 h", "setting": "[2]; in vivo, % ID/g kidney", "value": 3.4, "unit": "%ID/g"}, {"measurement": "tumor-specific accumulation by whole-body radioimaging", "setting": "LNCaP tumor xenografts; radioimaging", "value": "accumulated predominantly in the PSMA-positive LNCaP tumors"}, {"measurement": "Tumor:Tissue blood", "setting": "LNCaP tumor xenografts", "value": 91.7}, {"measurement": "Tumor:Tissue heart", "setting": "LNCaP tumor xenografts", "value": 112.2}, {"measurement": "Tumor:Tissue liver", "setting": "LNCaP tumor xenografts", "value": 62.9}, {"measurement": "Tumor:Tissue lung", "setting": "LNCaP tumor xenografts", "value": 101.8}, {"measurement": "Tumor:Tissue muscle", "setting": "LNCaP tumor xenografts", "value": 115.1}, {"measurement": "Tumor:Tissue skin", "setting": "LNCaP tumor xenografts", "value": 92.3}, {"measurement": "Tumor:Tissue spleen", "setting": "LNCaP tumor xenografts", "value": 66.7}]}
{"smiles": "N[C@@H](CNC(=O)[C@H](Cc1ccccc1)NC(=O)[C@H](Cc1ccccc1)NC(=O)CCCCCCCNC(=O)CC[C@H](NC(=O)N[C@@H](CCC(=O)O)C(=O)O)C(=O)O)C(=O)N[C@@H](CC(=O)O)C(=O)N[C@@H](CS)C(=O)O", "note": "[compound 5] (H-[Dap]([Phe-Phe-Aoc-γGlu-CO-Glu])-Asp-Cys-OH)", "values": [{"measurement": "internalization by LNCaP cells", "setting": "[1]; 1 h at 4 °C vs 37 °C", "value": "internalization of the DUPA conjugate at physiological temperature"}, {"measurement": "affinity for PSMA / LNCaP cells (in words)", "setting": "[1]", "value": "most avid interaction"}, {"measurement": "competitive inhibition of binding by excess PMPA", "setting": "[1]", "value": "nearly quantitative competition"}, {"measurement": "Kd", "setting": "[1]", "value": "0.0138 ± 0.0039", "unit": "µM"}, {"measurement": "tissue uptake at 4 h", "setting": "[2]; [4]", "value": "9.8 ± 2.4", "unit": "%ID/g"}, {"measurement": "tissue uptake at 4 h", "setting": "[2]; kidney, 67 nmol, % ID/g kidney, kidney, 4 h after ip injection", "value": 37.8, "unit": "%ID/g"}, {"measurement": "tumor-specific accumulation by whole-body radioimaging", "setting": "LNCaP tumor xenografts; radioimaging", "value": "accumulated predominantly in the PSMA-positive LNCaP tumors"}, {"measurement": "LNCaP tumor uptake with coinjection of excess PMPA", "setting": "LNCaP tumor xenografts; competition with 100-fold excess PMPA, radioimaging", "value": "eliminated LNCaP tumor uptake"}, {"measurement": "Tumor:Tissue blood", "setting": "LNCaP tumor xenografts", "value": 36.4}, {"measurement": "Tumor:Tissue heart", "setting": "LNCaP tumor xenografts", "value": 80.9}, {"measurement": "Tumor:Tissue liver", "setting": "LNCaP tumor xenografts", "value": 20.2}, {"measurement": "Tumor:Tissue lung", "setting": "LNCaP tumor xenografts", "value": 35.2}, {"measurement": "Tumor:Tissue muscle", "setting": "LNCaP tumor xenografts", "value": 78.9}, {"measurement": "Tumor:Tissue skin", "setting": "LNCaP tumor xenografts", "value": 30.7}, {"measurement": "Tumor:Tissue spleen", "setting": "LNCaP tumor xenografts", "value": 18.4}, {"measurement": "uptake in PSMA-negative tumors", "setting": "[3]", "value": "no uptake"}]}
{"smiles": "N[C@@H](CNC(=O)[C@H](CCC(=O)O)NC(=O)[C@H](Cc1ccccc1)NC(=O)CCCCCCCNC(=O)CC[C@H](NC(=O)N[C@@H](CCC(=O)O)C(=O)O)C(=O)O)C(=O)N[C@@H](CC(=O)O)C(=O)N[C@@H](CS)C(=O)O", "note": "[compound 6] (H-[Dap]([Glu-Phe-Aoc-γGlu-CO-Glu])-Asp-Cys-OH)", "values": [{"measurement": "affinity for PSMA / LNCaP cells (in words)", "setting": "[1]", "value": "somewhat lower affinities"}, {"measurement": "competitive inhibition of binding by excess PMPA", "setting": "[1]", "value": "nearly quantitative competition"}, {"measurement": "Kd", "setting": "[1]", "value": 0.031, "unit": "µM"}, {"measurement": "tissue uptake at 4 h", "setting": "[2]; [4]", "value": "9.8 ± 2.4", "unit": "%ID/g"}, {"measurement": "tissue uptake at 4 h", "setting": "[2]; in vivo, % ID/g kidney", "value": 42.9, "unit": "%ID/g"}, {"measurement": "tumor-specific accumulation by whole-body radioimaging", "setting": "LNCaP tumor xenografts; radioimaging", "value": "accumulated predominantly in the PSMA-positive LNCaP tumors"}, {"measurement": "Tumor:Tissue blood", "setting": "LNCaP tumor xenografts", "value": 51.4}, {"measurement": "Tumor:Tissue heart", "setting": "LNCaP tumor xenografts", "value": 93.3}, {"measurement": "Tumor:Tissue liver", "setting": "LNCaP tumor xenografts", "value": 11.6}, {"measurement": "Tumor:Tissue lung", "setting": "LNCaP tumor xenografts", "value": 18.9}, {"measurement": "Tumor:Tissue muscle", "setting": "LNCaP tumor xenografts", "value": 74.2}, {"measurement": "Tumor:Tissue skin", "setting": "LNCaP tumor xenografts", "value": 28.7}, {"measurement": "Tumor:Tissue spleen", "setting": "LNCaP tumor xenografts", "value": 4.5}]}
{"smiles": "N[C@@H](CNC(=O)[C@H](Cc1ccccc1)NC(=O)[C@H](Cc1ccccc1)NC(=O)CNC(=O)[C@H](CCC(=O)O)NC(=O)[C@H](Cc1ccccc1)NC(=O)CC[C@H](NC(=O)N[C@@H](CCC(=O)O)C(=O)O)C(=O)O)C(=O)N[C@@H](CC(=O)O)C(=O)N[C@@H](CS)C(=O)O", "note": "[compound 7] ({Glu-CO-γGlu}-FEGFF-X1)", "values": [{"measurement": "tumor-specific accumulation by whole-body radioimaging", "setting": "LNCaP tumor xenografts; radioimaging", "value": "accumulated predominantly in the PSMA-positive LNCaP tumors"}]}
{"smiles": "N[C@@H](CNC(=O)[C@H](Cc1ccccc1)NC(=O)CCOCCOCCOCCOCCOCCOCCNC(=O)CC[C@H](NC(=O)N[C@@H](CCC(=O)O)C(=O)O)C(=O)O)C(=O)N[C@@H](CC(=O)O)C(=O)N[C@@H](CS)C(=O)O", "note": "[compound 8] (H-[Dap]([Phe-PEG6-γGlu-CO-Glu])-Asp-Cys-OH)", "values": [{"measurement": "affinity for PSMA / LNCaP cells (in words)", "setting": "[1]", "value": "weak affinity"}, {"measurement": "Kd", "setting": "[1]", "value": 0.338, "unit": "µM"}, {"measurement": "tumor-specific accumulation by whole-body radioimaging", "setting": "LNCaP tumor xenografts; radioimaging", "value": "not observed"}, {"measurement": "accumulation in PSMA-positive tumors by γ-counting (in words)", "setting": "LNCaP tumor xenografts", "value": "did not accumulate"}]}
